Biological target: the molecule itself
Experiment: cross-linking

B1: L-Glutamate dehydrogenase from bovine liver (enzyme)
chain: not shown
stoichiometry N: 6

— article doi:10.1101/2023.05.30.542861 (bioRxiv, 2023)
